Data reported in patent US20050064420A1, “Methods for identifying, isolating, and controlling the growth of estrogen-responsive cells” (Dana-Farber Cancer Institute, Inc., priority 2001, published 2005).

B1: lipocalin 2: Secreted human protein; expressed from pCEP4-lipocalin-HA with C-terminal double hemagglutinin tag, or supplied in conditioned medium (protein, UniProt P80188 21-198, looked up)
Neutrophil …: QDSTSDLIPAPPLSKVPLQQNFQDNQFQGKWYVVGLAGNAILREDKDPQKMYATIYELKEDKSYNVTSVLFRKKKCDYWIRTFVPGCQPGEFTLGNIKSYPGLTSYLVRVVSTNYNQHAMVFFKKVSQNREYFKITLYGRTKELTSELKENFIRFSKSLGLPENHIVFPVPIDQCIDG
modifications: C-terminal double HA tag
notes: Secreted human protein; expressed from pCEP4-lipocalin-HA with C-terminal double hemagglutinin tag, or supplied in conditioned medium

Columns and labels:
[1] = tested on: estrogen receptor expressing human breast cancer cell lines; assay type: cell-based
Experimental: Profiles for untreated (filled) and estrogen treated cells (unfilled) infected with the Ad-25ERE-GFP adenovirus are shown.
To assay estrogen responsiveness, cells were cultured in estrogen-free medium (phenol red-free RPMI1640 or DMEM/F12 medium (Life Technologies, Rockville, Md.) supplemented with charcoal/dextran treated fetal bovine serum (cd FBS; 5%) (Hyclone, Logan, Utah)) for 7 days. The cells were tested in fresh estrogen-free medium or fresh estrogen-free medium supplemented with 10 nM estradiol or 10 μM 4-hydroxy-tamoxifen. Cells were collected after 16-24 hours of hormone treatment.
For fluorescence microscopy analysis breast cancer cell lines were infected with Ad-25ERE-GFP virus at a MOI (multiplicity of infection) of ˜100 and treated with hormones as described above.
By infecting mammary epithelial cells with the Ad-25ERE-GFP adenovirus, it was possible to isolate ER+ estrogen responsive cells based on GFP expression. […] Ad-25ERE-GFP was then used to infect various estrogen receptor expressing human breast cancer cell lines in the presence of estrogen or tamoxifen or in the absence of hormone (FIG. 1B).

MCF10A cells = experiment: Colony assay with lipocalin 2 conditioned medium; assay type: cell-based, human; conditions: conditioned medium from cells expressing lipocalin 2 vs GFP, seven days of culture
Experimental: (§1) FIG. 4 is a bar graph showing the number of colonies that were obtained after culturing estrogen receptor expressing 747D breast cancer cells and estrogen receptor non-expressing MCF10A normal immortalized mammary epithelial cells with conditioned medium from […] cells recombinantly expressing either GFP (“GEP”) or lipocalin 2 (“LIPO”). The experiments were carried out in the wells of 6-well tissue culture plates. Data, which are expressed as “Colonies/well”, from experiments carried out in medium supplemented with 5% fetal bovine serum (“5% FBS”) or 0.2% fetal bovine serum (“0.2% FBS”) are shown.
(§2) For experiments to test for cell growth regulatory activity in secreted lipocalin 2, conditioned medium was generated by infecting COS7 cells with replication-defective adenoviruses expressing either GFP or lipocalin 2. Filtered medium collected 3-4 days after infection was applied to T47 or MCF10A cells. Colonies were visualized by crystal violet staining after seven days of culture.
(§3) Lipocalin 2 is a secreted protein and could thus be a paracrine factor expressed by NER+ cells that affects the surrounding mammary epithelial cells. In order to determine the effect of lipocalin 2 expression on mammary cell growth, colony growth assays were performed in various ER− and ER+ breast cancer cell lines and in MCF10A cells (FIG. 3D). […]

T47D cells = experiment: Colony assay with lipocalin 2 conditioned medium; assay type: cell-based, human; conditions: conditioned medium from cells expressing lipocalin 2 vs GFP, seven days of culture
Experimental: as §1, §2, §3

[2] = tested on: ER+ breast cancer cell lines (MCF-7 and T47D); experiment: Colony assay after transfection with lipocalin 2 expression vector (pCEP4-lipocalin-HA), hygromycin selection; assay type: cell-based, human; conditions: lipocalin 2 expression vs control vector pCEP4; 2 weeks hygromycin selection; crystal violet staining
Description: (§4) FIG. 3D is a bar graph showing the numbers of colonies that were obtained after drug (hygromycin) selection (for 2 weeks) of estrogen receptor (“ER”) expressing (“Positive”) MCF-7 and T47D breast cancer cells, estrogen receptor non-expressing (“Negative”) BT549 and MTA-MB-435S breast cancer cells, and estrogen receptor non-expressing (“Negative”) MCF10A normal immortalized mammary epithelial cells that had all been transfected with either a control expression vector (“CEP”) or an expression vector containing cDNA encoding human lipocalin 2 fused at its C-terminus to a double hemagglutinin tag (“LIPO”). The experiments were carried out in T25 tissue culture flasks and the data are expressed as the number of “Colonies/T25 flask”.
(§5) cDNA encoding human lipocalin 2 was amplified by PCR and the isolated PCR product was cloned into the pCEP4 (Invitrogen, Carlsbad, Calif.). The resulting vector (pCEP4-lipocalin-HA) expresses lipocalin-2 with a double hemaglutinnin (HA) tag at its C-terminus. For colony assays, cells were transfected with pCEP4 (control) or pCEP4-lipocalin-HA using FuGene6 (Roche, Indianapolis, Ind.). Transfectants were selected in hygromycin-containing medium for 2 weeks after which colonies were visualized by crystal violet staining. Expression of the lipocalin 2-HA fusion protein was confirmed by western blot analysis (using an antibody specific for HA (Covance, Richmond, Calif.)) of cell lysate and medium from T47D cells transfected with pCEP4 or pCEP4-lipocalin-HA constructs.
(§6) Lipocalin 2 is a secreted protein and could thus be a paracrine factor expressed by NER+ cells that affects the surrounding mammary epithelial cells. In order to determine the effect of lipocalin 2 expression on mammary cell growth, colony growth assays were performed in various ER− and ER+ breast cancer cell lines and in MCF10A cells (FIG. 3D). […] In MCF10A immortalized ER− normal mammary epithelial cells a small increase in the number of colonies (18 vs. 7 colonies) was also observed following lipocalin 2 transfection (FIG. 3D). […]

[3] = tested on: ER- breast cancer cell line BT549; experiment: as above; assay type: cell-based, human; conditions: lipocalin 2 expression vs control vector pCEP4, 2 weeks hygromycin selection
Description: as §4, §5, §6

[4] = tested on: MCF10A immortalized ER- normal mammary epithelial cells; experiment: as above; assay type: cell-based, human; conditions: following lipocalin 2 transfection (control vector: 7 colonies), T25 flask
Description: as §4, §5, §6

Molecule | GFP expression [1] | growth (colonies) with exogenous lipocalin 2 (MCF10A cells) | growth (colonies) with exogenous lipocalin 2 (T47D cells) | colony numbers [2] | colony numbers [3] | number of colonies [4] [colonies]
C[C@]12CC[C@@H]3c4ccc(O)cc4CC[C@H]3[C@@H]1CC[C@@H]2O [estrogen, estradiol] | high GFP expression |  |  |  |  | 
B1 |  | enhanced | inhibited | dramatically suppressed colony numbers | small but significant increase in colony numbers | 18
